From patent US20030022837A1 (Stanford University, published 2003)

Target: T1, His-Cdc20 (baculovirus-expressed human Cdc20) (human, UniProt Q12834 1-499)
T1 construct: Also used for the Cdc20 baculovirus of the SF9 co-infection; also called purified baculovirus-expressed Cdc20; Baculovirus-expressed Cdc20; not shown: His tag
Assay: SF9 cells co-infected with Emi1 and Cdc20 baculoviruses, anti-Emi1 immunoprecipitation, Cdc20 immunoblot

T1 sequence (Q12834 whole entry): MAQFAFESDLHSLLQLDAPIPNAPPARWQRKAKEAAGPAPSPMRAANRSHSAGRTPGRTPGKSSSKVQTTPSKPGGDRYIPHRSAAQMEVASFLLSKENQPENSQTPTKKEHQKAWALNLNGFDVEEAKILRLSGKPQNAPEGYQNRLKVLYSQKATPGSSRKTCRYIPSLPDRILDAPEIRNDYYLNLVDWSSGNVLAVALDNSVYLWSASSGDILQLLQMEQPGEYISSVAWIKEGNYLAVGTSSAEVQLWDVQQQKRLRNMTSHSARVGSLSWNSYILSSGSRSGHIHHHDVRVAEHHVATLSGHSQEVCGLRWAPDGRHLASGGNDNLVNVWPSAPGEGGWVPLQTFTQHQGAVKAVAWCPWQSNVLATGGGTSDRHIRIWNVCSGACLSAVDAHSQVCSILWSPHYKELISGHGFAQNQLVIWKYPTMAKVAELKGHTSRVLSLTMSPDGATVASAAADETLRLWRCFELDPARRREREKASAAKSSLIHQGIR

B1: Xenopus Emi1 (Early Mitotic Inhibitor 1), full-length wild type (other)
chain: MMCGFASNQSPKKLSSKKSSATNVHLEISPVKHHPPCKVYENVQGSCLDSAICTTVAKCADLTDDLPVHNKENLLHRLNDLETNSYEEYSALQDSGYSSILQNDSPCQDETDRKVSDIQVRETPKNFMSYQRPFHTLSKINLPILRFEEAVCSTLKKMRKTNKKIDWNAVDVVCGGNYGLEHLIGKSMGLERFDILAELFHRDFKHLLTKILRHLSAMDLINVISVSTTWRKLLQKDNWAYNAYKLGCKELCEKRAKVSSHTATRDESLCRVPLASVQKVAASSLCTSKKQSKNKNGGLSCNRLAEFIEVAQTLKNDQSLKVCVDCGSPAKHDPCLHRAICTRESCKLDFCTRCSCKYHFSKSCLMSKPGSYRIPSEPLPGSKKSKQNLRRL
notes: 392 residues; also called xEmi1; Emi1p
B1: binds.
